How the values were obtained:
Assay type in all cases: biochemical
[1] = HTP-analysis of yeast culture supernatants, no challenge (MUGal hydrolysis); conditions: activity of the variant/activity of Rd3BB (SEQ ID NO: 13)
In short: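 GLA variants were expressed in INVSc1 yeast grown in SD-Ura broth with glucose at 30° C., and culture supernatants were collected after 66-84 h. Supernatant was mixed with McIlvaine buffer pH 4.8 and MUGal (2 mM stock) in 50 mM citrate, 200 mM KCl, pH 4.6, incubated at 37° C. for 30-180 minutes, then quenched with sodium carbonate.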

[2] = HTP-analysis of supernatants pretreated with acid (MUGal hydrolysis); conditions: activity of the variant/activity of Rd3BB (SEQ ID NO: 13); challenge at pH 3.7
In short: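 Supernatants from INVSc1 yeast secreting GLA variants were challenged at 37° C. for 1-3 h in McIlvaine buffer at pH 3.3-4.3. Residual activity was then measured on 4 mM MUGal substrate stock at pH 4.8 with citrate buffer pH 4.3, over 30-180 min at 37° C. Reactions were quenched with sodium carbonate and read by fluorescence (Ex 355/Em 448 nm).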

[3] = HTP-analysis of supernatants pretreated with base (MUGal hydrolysis); conditions: activity of the variant/activity of Rd3BB (SEQ ID NO: 13); challenge at pH 9.7
In short: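 Fluorescence of released 4-MU (Ex 355 nm, Em 448 nm) after carbonate quench reports MUGal hydrolysis by GLA variants secreted from INVSc1 yeast. Before the acidic (pH 4.3-4.8) 30-180 min reaction at 37° C, supernatants had been pre-incubated at pH 7.0-9.7 for 1-18 h at 37° C.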

Molecule	Relative Activity of GLA Variants After No Challenge (NC) [1]	Relative Activity of GLA Variants After Challenge at pH 3.7 [2]	Relative Activity of GLA Variants After Challenge at pH 9.7 [3]
576 (protein, Synthetic Polypeptide sequence of Variant No. 576 of mature Human GLA) LDNGLARTPTMGWLHWERFMCNLDCQEEPDSCISEKLFMEMAERMVSEGWKDAGYEYLCIDDCWMAPQRDSEGRLQADPQRFPHGIRQLANHVHSKGLKLGIYADVGNKTCAGFPGSFGYYDIDAQTFADWGVDLLKFDGCYCDSLENLADGYKHMSLALNRTGRSIVYSCEWPLYMWPFQKPNYTEIRQYCNHWRNFADIDDSWASIKSILDWTSRNQERIVDVAGPGGWNDPDMLVIGNFGLSWDQQVTQMALWAIMAAPLFMSNDLRHISPQAKALLQDKDVIAINQDPLGKQGYQLRKGDNFEVWERPLYGDAWAVAIINRQEIGGPRSYTIPVASLGKGVACNPACFITQLLPVKRQLGFYNWTSRLKSHINPTGTVLLQLENTMQMSLKDLL	+ (+ = 1.5 to 5 relative activity over Rd3BB (SEQ ID NO: 13))	+ (+ = 1.5 to 5 relative activity over Rd3BB (SEQ ID NO: 13))	++ (++ = >5 to 10 relative activity over Rd3BB (SEQ ID NO: 13))
582 (protein, Synthetic Polypeptide sequence of Variant No. 582 of mature Human GLA) LDNGLARTPTMGWLHWERFMCNLDCQEEPDSCISEKLFMEMAERMVSEGWKDAGYEYLCIDDCWMAPQRDSEGRLQADPQRFPHGIRQLANHVHSKGLKLGIYADVGNKTCAGFPGSFGYYDIDAQTFADWGVDLLKFDGCYCDSLENLADGYKHMSLALNRTGRSIVYSCEWPLYMWPFQKPNYTEIRQYCNHWRNFADIDDSWASIKAILDWTSRNQERIVDVAGPGGWNDPDMLVIGNFGLSWDQQVTQMALWAIMAAPLFMSNDLRHISPQAKALLQDKDVIAINQDPLGKQGYQLRKGDNFEVWERPLSGDAWAVAIINRQEIGGPRSYTIPVASLGKGVACNPACFITQLLPVKRQLGFYNWTSRLKSHINPTGTVLLQLENTMQMSLKDLL	+ (+ = 1.5 to 5 relative activity over Rd3BB (SEQ ID NO: 13))	+ (+ = 1.5 to 5 relative activity over Rd3BB (SEQ ID NO: 13))	++ (++ = >5 to 10 relative activity over Rd3BB (SEQ ID NO: 13))
577 (protein, Synthetic Polypeptide sequence of Variant No. 577 of mature Human GLA) LDNGLARTPTMGWLHWERFMCNLDCQEEPDSCISEKLFMEMAERMVSEGWKDAGYEYLCIDDCWMAPQRDSEGRLQADPQRFPHGIRQLANHVHSKGLKLGIYADVGNKTCAGFPGSFGYYDIDAQTFADWGVDLLKFDGCYCDSLENLADGYKHMSLALNRTGRSIVYSCEWPLYMWPFQKPNYTEIRQYCNHWRNFADIDDSWASIKSILDWTSRNQERIVDVAGPGGWNDPDMLVIGNFGLSADQQVTQMALWAIMAAPLFMSNDLRHISPQAKALLQDKDVIAINQDPLGKQGYQLRKGDNFEVWERPLSGDAWAVAIINRQEIGGPRSYTIPVASLGKGVACNPACFITQLLPVKRQLGFYNWTSRLKSHINPTGTVLLQLENTMQMSLKDLL	+ (+ = 1.5 to 5 relative activity over Rd3BB (SEQ ID NO: 13))	+++ (+++ = >10 relative activity over Rd3BB (SEQ ID NO: 13))	++ (++ = >5 to 10 relative activity over Rd3BB (SEQ ID NO: 13))
581 (protein, Synthetic Polypeptide sequence of Variant No. 581 of mature Human GLA) LDNGLARTPTMGWLHWERFMCNLDCQEEPDSCISEKLFMEMAERMVSEGWKDAGYEYLCIDDCWMAPQRDSEGRLQADPQRFPHGIRQLANHVHSKGLKLGIYADVGNKTCAGFPGSFGYYDIDAQTFADWGVDLLKFDGCYCDSLENLADGYKHMSLALNRTGRSIVYSCEWPLYMWPFQKPNYTEIRQYCNHWRNFADIDDSWASIKSILDWTSRNQERIVDVAGPGGWNDPDMLVIGNFGLSSDQQVTQMALWAIMAAPLFMSNDLRHISPQAKALLQDKDVIAINQDPLGKQGYQLRKGDNFEVWERPLSGDAWAVAIINRQEIGGPRSYTIPVASLGKGVACNPACFITQLLPVKRQLGFYNWTSRLKSHINPTGTVLLQLENTMQMSLKDLL	+ (+ = 1.5 to 5 relative activity over Rd3BB (SEQ ID NO: 13))	++ (++ = >5 to 10 relative activity over Rd3BB (SEQ ID NO: 13))	++ (++ = >5 to 10 relative activity over Rd3BB (SEQ ID NO: 13))
580 (protein, Synthetic Polypeptide sequence of Variant No. 580 of mature Human GLA) LDNGLARTPTMGWLHWERFMCNLDCQEEPDSCISEKLFMEMAERMVSEGWKDAGYEYLCIDDCWMAPQRDSEGRLQADPQRFPHGIRQLANHVHSKGLKLGIYADVGNKTCAGFPGSFGYYDIDAQTFADWGVDLLKFDGCYCDSLENLADGYKHMSLALNRTGRSIVYSCEWPLYMWPFQKPNYTEIRQYCNHWRNFADIDDSWASIKSILDWTSRNQERIVDVAGPGGWNDPDMLVIGNFGLSRDQQVTQMALWAIMAAPLFMSNDLRHISPQAKALLQDKDVIAINQDPLGKQGYQLRKGDNFEVWERPLSGDAWAVAIINRQEIGGPRSYTIPVASLGKGVACNPACFITQLLPVKRQLGFYNWTSRLKSHINPTGTVLLQLENTMQMSLKDLL	+ (+ = 1.5 to 5 relative activity over Rd3BB (SEQ ID NO: 13))	+++ (+++ = >10 relative activity over Rd3BB (SEQ ID NO: 13))	++ (++ = >5 to 10 relative activity over Rd3BB (SEQ ID NO: 13))
583 (protein, Synthetic Polypeptide sequence of Variant No. 583 of mature Human GLA) LDNGLARTPTMGWLHWERFMCNLDCQEEPDSCISEKLFMEMAERMVSEGWKDAGYEYLCIDDCWMAPQRDSEGRLQADPQRFPHGIRQLANHVHSKGLKLGIYADVGNKTCAGFPGSFGYYDIDAQTFADWGVDLLKFDGCYCDSLENLADGYKHMSLALNRTGRSIVYSCEWPLYMWPFQKPNYTEIRQYCNHWRNFADIDDSWASIKAILDWTSRNQERIVDVAGPGGWNDPDMLVIGNFGLSWDQQVTQMALWAIMAAPLFMSNDLRHISPQAKALLQDKDVIAINQDPLGKQGYQLRKGDNFEVWERPLSGDAWAVAIINRQEIGGPRSYTIPVASLGKGVACNPTCFITQLLPVKRQLGFYNWTSRLKSHINPTGTVLLQLENTMQMSLKDLL	+ (+ = 1.5 to 5 relative activity over Rd3BB (SEQ ID NO: 13))	+ (+ = 1.5 to 5 relative activity over Rd3BB (SEQ ID NO: 13))	++ (++ = >5 to 10 relative activity over Rd3BB (SEQ ID NO: 13))
579 (protein, Synthetic Polypeptide sequence of Variant No. 579 of mature Human GLA) LDNGLARTPTMGWLHWERFMCNLDCQEEPDSCISEKLFMEMAERMVSEGWKDAGYEYLCIDDCWMAPQRDSEGRLQADPQRFPHGIRQLANHVHSKGLKLGIYADVGNKTCAGFPGSFGYYDIDAQTFADWGVDLLKFDGCYCDSLENLADGYKHMSLALNRTGRSIVYSCEWPLYMWPFQKPNYTEIRQYCNHWRNFADIDDSWASIKSILDWTSRNQERIVDVAGPGGWNDPDMLVIGNFGLSPDQQVTQMALWAIMAAPLFMSNDLRHISPQAKALLQDKDVIAINQDPLGKQGYQLRKGDNFEVWERPLSGDAWAVAIINRQEIGGPRSYTIPVASLGKGVACNPACFITQLLPVKRQLGFYNWTSRLKSHINPTGTVLLQLENTMQMSLKDLL	+ (+ = 1.5 to 5 relative activity over Rd3BB (SEQ ID NO: 13))	+++ (+++ = >10 relative activity over Rd3BB (SEQ ID NO: 13))	++ (++ = >5 to 10 relative activity over Rd3BB (SEQ ID NO: 13))
578 (protein, Synthetic Polypeptide sequence of Variant No. 578 of mature Human GLA) LDNGLARTPTMGWLHWERFMCNLDCQEEPDSCISEKLFMEMAERMVSEGWKDAGYEYLCIDDCWMAPQRDSEGRLQADPQRFPHGIRQLANHVHSKGLKLGIYADVGNKTCAGFPGSFGYYDIDAQTFADWGVDLLKFDGCYCDSLENLADGYKHMSLALNRTGRSIVYSCEWPLYMWPFQKPNYTEIRQYCNHWRNFADIDDSWASIKSILDWTSRNQERIVDVAGPGGWNDPDMLVIGNFGLSIDQQVTQMALWAIMAAPLFMSNDLRHISPQAKALLQDKDVIAINQDPLGKQGYQLRKGDNFEVWERPLSGDAWAVAIINRQEIGGPRSYTIPVASLGKGVACNPACFITQLLPVKRQLGFYNWTSRLKSHINPTGTVLLQLENTMQMSLKDLL	+ (+ = 1.5 to 5 relative activity over Rd3BB (SEQ ID NO: 13))	+++ (+++ = >10 relative activity over Rd3BB (SEQ ID NO: 13))	++ (++ = >5 to 10 relative activity over Rd3BB (SEQ ID NO: 13))

Reference: patent publication US11278600B2, “Human alpha-galactosidase variants” (Codexis, Inc., priority 2014, dated 2022)
